From US5502166, “NMDH receptor proteins and genes encoding the same” (Mitsubishi Chemical Corporation, dated 1996)

Target: ζ1 NMDA type glutamate receptor subunit (mouse, wild type) (mouse, UniProt P35438)
Test: cell-based or functional assay

B1: glutamate receptor ε3 subunit (mouse NMDA type glutamate receptor channel subunit) (receptor)
chain: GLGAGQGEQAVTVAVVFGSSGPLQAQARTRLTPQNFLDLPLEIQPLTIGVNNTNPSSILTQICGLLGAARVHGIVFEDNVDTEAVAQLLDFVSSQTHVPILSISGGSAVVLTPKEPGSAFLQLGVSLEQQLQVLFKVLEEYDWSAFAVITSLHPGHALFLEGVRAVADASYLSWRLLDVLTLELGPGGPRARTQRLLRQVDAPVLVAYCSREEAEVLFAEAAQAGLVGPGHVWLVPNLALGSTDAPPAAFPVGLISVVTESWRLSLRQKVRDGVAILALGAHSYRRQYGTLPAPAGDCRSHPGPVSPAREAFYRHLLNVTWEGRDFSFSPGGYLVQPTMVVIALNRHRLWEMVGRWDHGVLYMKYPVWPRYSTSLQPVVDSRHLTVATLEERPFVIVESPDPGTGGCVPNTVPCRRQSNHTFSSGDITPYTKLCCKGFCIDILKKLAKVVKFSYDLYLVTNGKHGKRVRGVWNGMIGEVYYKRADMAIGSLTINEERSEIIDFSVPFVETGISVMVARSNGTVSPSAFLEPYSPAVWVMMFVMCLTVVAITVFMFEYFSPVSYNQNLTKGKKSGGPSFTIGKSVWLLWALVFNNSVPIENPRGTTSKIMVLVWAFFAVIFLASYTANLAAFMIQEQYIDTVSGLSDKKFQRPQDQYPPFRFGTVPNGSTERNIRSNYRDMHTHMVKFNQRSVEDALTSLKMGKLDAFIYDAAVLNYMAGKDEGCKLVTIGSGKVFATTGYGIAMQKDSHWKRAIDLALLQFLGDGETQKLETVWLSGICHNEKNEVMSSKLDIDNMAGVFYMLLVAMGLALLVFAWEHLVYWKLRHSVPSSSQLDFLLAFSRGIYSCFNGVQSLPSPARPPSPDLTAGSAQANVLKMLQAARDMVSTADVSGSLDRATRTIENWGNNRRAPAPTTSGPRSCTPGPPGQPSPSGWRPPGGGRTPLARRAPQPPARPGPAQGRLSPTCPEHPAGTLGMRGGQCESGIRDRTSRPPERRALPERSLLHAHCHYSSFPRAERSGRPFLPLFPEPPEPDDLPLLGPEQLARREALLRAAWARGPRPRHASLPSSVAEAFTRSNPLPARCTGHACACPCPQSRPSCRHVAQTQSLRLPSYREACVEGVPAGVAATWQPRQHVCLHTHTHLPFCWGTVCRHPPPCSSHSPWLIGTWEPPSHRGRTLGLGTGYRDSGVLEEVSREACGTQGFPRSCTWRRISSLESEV
- inward current at a membrane potential of -70 mV, Xenopus oocytes, 10 µM L-glutamate and 10 µM glycine, frog standard Ringer's solution: 191 nA
